The target in data set [1] is mouse transferrin receptor (mTfR) (Mus musculus, UniProt Q62351 89-763). Briefly: bead-based flow cytometry; 200 nM aptamer; SB1T: 40 mM HEPES, 125 mM NaCl, 5 mM KCl, 1 mM MgCl2, 1 mM CaCl2, 0.05% Tween20, 1 mg/mL salmon sperm DNA; 37 °C, 30 min; pH not stated. The conditions noted are these: protein: recombinant, chain copies: 2, label: 5' DyLight 650 via thiol C6.
Data set [2] addresses T1, human transferrin receptor 1 (hTfR) (Homo sapiens, UniProt P02786 89-760). In words: bead-based flow cytometry; apparent Kd; 0-100 nM aptamer range; SB1T: 40 mM HEPES, 125 mM NaCl, 5 mM KCl, 1 mM MgCl2, 1 mM CaCl2, 0.05% Tween20, 1 mg/mL salmon sperm DNA; 37 °C, 30 min; pH not stated. The conditions noted are these: protein: recombinant; tags: His; chain copies: 2; label: 5' DyLight 650 via thiol C6.

Data set [3] addresses T1, human transferrin receptor 1 (hTfR). Briefly: bead-based flow cytometry; apparent Kd; SB1T: 40 mM HEPES, 125 mM NaCl, 5 mM KCl, 1 mM MgCl2, 1 mM CaCl2, 0.05% Tween20, 1 mg/mL salmon sperm DNA; 37 °C, 30 min; pH not stated. The conditions noted are these: protein: recombinant, tags: His, chain copies: 2, label: 5' DyLight 650 via thiol C6.
Where [4] appears, read: hairpin with bulge and loop (predicted).

T1 sequence (P02786 89-760): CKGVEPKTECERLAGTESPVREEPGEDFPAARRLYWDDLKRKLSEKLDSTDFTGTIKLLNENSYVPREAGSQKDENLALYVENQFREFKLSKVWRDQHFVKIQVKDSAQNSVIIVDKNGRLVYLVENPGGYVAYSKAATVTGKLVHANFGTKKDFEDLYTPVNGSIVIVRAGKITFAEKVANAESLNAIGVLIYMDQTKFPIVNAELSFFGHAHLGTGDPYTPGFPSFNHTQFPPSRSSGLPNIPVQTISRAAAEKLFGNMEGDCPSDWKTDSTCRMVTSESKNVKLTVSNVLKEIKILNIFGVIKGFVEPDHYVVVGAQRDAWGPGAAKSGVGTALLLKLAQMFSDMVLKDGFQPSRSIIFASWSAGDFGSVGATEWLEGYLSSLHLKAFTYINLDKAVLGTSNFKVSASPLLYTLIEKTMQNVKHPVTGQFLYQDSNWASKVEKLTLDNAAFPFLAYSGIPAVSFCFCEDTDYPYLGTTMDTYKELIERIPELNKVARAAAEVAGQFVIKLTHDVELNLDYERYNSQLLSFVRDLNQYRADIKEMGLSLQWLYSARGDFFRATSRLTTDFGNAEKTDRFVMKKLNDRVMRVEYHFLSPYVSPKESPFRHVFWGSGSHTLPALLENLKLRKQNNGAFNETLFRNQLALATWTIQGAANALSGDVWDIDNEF
Chain of mouse transferrin receptor (mTfR) (Q62351 89-763): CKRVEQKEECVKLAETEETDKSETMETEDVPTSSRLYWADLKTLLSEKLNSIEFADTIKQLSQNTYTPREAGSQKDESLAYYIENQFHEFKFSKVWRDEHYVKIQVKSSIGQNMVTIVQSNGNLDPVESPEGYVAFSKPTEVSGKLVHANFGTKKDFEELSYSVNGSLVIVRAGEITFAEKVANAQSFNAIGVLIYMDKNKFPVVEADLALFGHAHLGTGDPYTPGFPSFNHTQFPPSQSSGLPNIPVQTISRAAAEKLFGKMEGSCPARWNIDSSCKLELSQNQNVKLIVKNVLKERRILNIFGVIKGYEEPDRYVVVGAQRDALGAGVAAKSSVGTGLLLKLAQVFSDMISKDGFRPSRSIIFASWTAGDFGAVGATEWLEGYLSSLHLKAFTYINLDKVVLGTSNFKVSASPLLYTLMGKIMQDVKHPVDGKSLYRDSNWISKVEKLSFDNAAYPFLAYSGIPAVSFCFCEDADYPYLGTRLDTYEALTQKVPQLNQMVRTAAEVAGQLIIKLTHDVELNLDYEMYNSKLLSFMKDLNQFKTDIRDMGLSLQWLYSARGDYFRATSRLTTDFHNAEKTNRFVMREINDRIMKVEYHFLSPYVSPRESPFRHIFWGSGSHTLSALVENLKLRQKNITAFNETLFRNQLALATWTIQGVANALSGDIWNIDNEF

B1: Waz (DL650-Waz) (XNA)
RNA: GGGUUCUACGAUAAACGGUUAAUGACCAGCUUAUGGCUGGCAGUUCCC
modifications: 2'-fluoro pyrimidines; 3' inverted dT
As for B1, in data set [1], the binding result was “no binding”. The Kd in data set [2] came to 22.1 nM.

B2: C36 (DL650-C36) (XNA)
RNA: GGCGUAGUGAUUAUGAAUCGUGUGCUAAUACACGCC
modifications: 2'-fluoro pyrimidines; 3' inverted dT
Turning to B2, the binding result in data set [1] is “no binding”.

B3: C2.min (DL650-C2.min) (XNA)
RNA: GGGGGAUCAAUCCAAGGGACCCGGAAACGCUCCCUUACACCCC
modifications: 2'-fluoro pyrimidines; 3' inverted dT
In the case of B3, in data set [3], the Kd was 7.44 nM.

B4: E3 (DL650-E3) (XNA)
RNA: GGCUUUCGGGCUUUCGGCAACAUCAGCCCCUCAGCC
modifications: 2'-fluoro pyrimidines; 3' inverted dT
Consider B4, for which the Kd in data set [3] (setting [4]) is 4.23 nM. Moreover, the binding result in data set [1] (setting [4]) is given as “no binding”.

The record behind these values is PMC10136559, “An Aptamer That Rapidly Internalizes into Cancer Cells Utilizes the Transferrin Receptor Pathway”.
